Biological target: human domain D of tenascin C (TnC-D) (human) (UniProt P24821)
Assay: method not stated in the sentence (ELISA-positive clone, further characterization)

Chain of UniProt P24821 (P24821 1622-1711): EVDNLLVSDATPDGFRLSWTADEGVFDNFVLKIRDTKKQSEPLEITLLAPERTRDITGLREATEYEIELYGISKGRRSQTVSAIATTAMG

factor of affinity improvement compared to scFv(D11): 4.8 fold
B1: scFv(P12) (scFv, part only; not given: VH-VL peptide linker, part only)
scFv, part: EVQLVESGGGLVQPGGSLRLSCAASGFTFGQYSMSWVRQAPGKGLEWVSAITGTGGETYYADSVEGRFTISRDNSKNTLYLQMNSLRAEDTAVYYCAKGRRIFDYWGQGTLVTVSRSSELTQDPAVSVALGQTVRITCQGDSLRRQPASWYQQKPGQAPVLVIYYKKLRPSGIPDRFSGSSSGNTASLTITGAQAEDEADYYCNSFSPKPKPVVFGGGTKLTVLG

From US20080056997A1
